# Results as given in the RNAGym collection of RNA variant scans (doi:10.1073/pnas.2313332121).
# Variants at the floor of the assay were thinned out.
# B1: TPR 5TU (parent)
# chain: GGAUCUUCUCGAUCUAACAAAAAAGACAAAUCUGCCACAAAGCUUGAGAGCAUCUUCGGAUGCAGAGGCGGCAGCCUUCGGUGGCGCGAUAGCGCCAACGUUCUCAACUAUGACACGCAAAACGCGUGCUCCGUUGAAUGGAGUUUAUCAUG
# Variants of: B1
# Experiment: polymerase ribozyme fitness, log enrichment relative to wild type (log ratio); higher = more active; in vitro selection for triplet polymerase activity
# In short: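 A heterodimeric triplet polymerase ribozyme had each of its subunits mutagenized by PCR into a library, which was transcribed. One round of in vitro selection, done in triplicate, annealed each library with a biotinylated primer, its partner subunit and triplets, then incubated it frozen at −7 °C before gel excision of extended constructs, streptavidin-bead capture and RT-PCR. Fitness is the logarithm of genotype enrichment relative to wild-type enrichment, based on Illumina sequencing of inputs and outputs and inverse-variance-weighted replicate averages. A base-2 logarithm is used, and genotypes were kept only with ≥10 input reads and ≥1 read per output.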
row,Variant,polymerase ribozyme fitness (log ratio)
1,GGAUCUUCUCGAUCUAACAAAAAAGACAAAUCUGCCACAAAGCUUGAGAGCGACUUCGGAUGCAGAGGCGGCAGCCUUCGGUGGAGCGAUAGCGCCAACGUUCUCAACUAGGACACGCAAAACGCGUGCUCCGUUGAAUGGAGUUUAUCAUG [A52G U53A C85A U111G],≤ -4.2
2,GGAUCUUCUCGAUCUAACAAAAAAGACAAAUCUGCCACAAAGCUUGAGAGCGUCUUCGGAUGCAAAGGCGGCAGCCUUCGGUGGCGCGAUAGCGCCAACGUUCUCAACUAUGACACGCAAAACGCGUGCUCCGUUGAAUGGAGUAUAUCAUG [A52G G65A U145A],-1.38
3,GGAUCUUCUCGAUCUAACAAAAAAGACAAAUCUGCCACAAAGCUUGAGAGCGUCCUCGGAUGCAGAGGCGGCAGCCUUCGGUGGCGCGAUAGCGCCAACGUUCUCAACUAUGACACGCAAAACGCGUGCUCCGUUGAAUGGAGUUUAUCAUG [A52G U55C],-0.523
4,GGAUCUUCUCGAUCUAACAAAAAAGACAAAUCUGCCACAAAGCUUGAGAGCGUCAUCGGAUGCAGAGGCGGCAGCCUUCGGUGGCGCGAUAGCGCCAACGUUCUCAACUAUGACACGCAAAACGCGUGCUCCGUUGAAUGGAGUUUAUCAUG [A52G U55A],-0.0825
5,GGAUCUUCUCGAUCUAACAAAAAAGACAAAUCUGCCACAAAGCUUGAGAGCGUCUUCGGAUGCAGAGGCGGCAGCCGUCGGCGGCGCGAUGGCGCCAACGUUCUCUACUAUGACACGCAAAACGCGUGCUCCGUUGAAUAGAGAUUAUCAUU [A52G U77G U82C A91G A106U G140A U144A G152U],≤ -4.2
6,GGAUCUUCUCGAUCUAACAAAAAAGACAAAUCUGCCACAAAGCUUGAGAGCUUCUUGAGAUGCAGAGGCGGCAGCCUUCGGUGGCGCGAUAGCGUCAACGUUCUCAACUAUGACACGCAAAAUGCUUGCUCCGUUGAUUGGAGUUUAUCAUG [A52U C57G G58A C95U C123U G126U A138U],≤ -4.2
7,GGAUCUUCUCGAUCUAACAAAAAAGACAAAUCUGCCACAAAGCUUGAGAGCGUCUUCGGAUGCAGAGGCGGCAGCCUUCGGUGACGCGAUAGCGCCAAUGUUCUCAACUAUGACACGCAGAACGCGUGCUCCGUUGAAUGGAGUUUAUCAUG [A52G G84A C99U A120G],-1.11
8,GGAUCUUCUCGAUCUAACAAAAAAGACAAAUCUGCCACAAAGCUUGAGAGCGUCUUCGGAUGCAGAAGCGGCAGCCUUCGGUGGCGCGAUAGCGCCAACGUUCUCAACUAUGACACGCAAAACGCUUGCUCCGUUGAAUGGAGUUUAUCAUG [A52G G67A G126U],≤ -4.2
9,GGAUCUUCUCGAUCUAACAAAAAAGACAAAUCUGCCACAAAGCUUGAGAGCGUCUUCGGAUGCAGAGGCGGCAGCCUUCGGUGGCGCGAUAGCGCCAACGUUCUCAACUAUGACACUCAAAACGCGUGCUCCGUUGAAUGGAGUUUAUCAUG [A52G G117U],0.374
10,GGAUCUUCUCGAUCUAACAAAAAAGACAAAUCUGCCACAAAGCUUGAGAGCGUCUUCGGAUGCAGAGGCGGCAGCCUUCGGUGGCGCGAUAGCGCCAACGUUCUCAACUAUGACACACAAAACGCGUGCUCCGUUGAAUGGAGUUUAUCAUG [A52G G117A],-0.121
11,GGAUCUUCUCGAUCUAACAAAAAAGACAAAUCUGCCACAAAGCUUGAGAGCGACUUCGGAUGCAGAGGCGGCAGCCUUCGGUGGCGCGAUAGCGCCAACGUUCUCAACUAUGACACGCAAAACGCGUGCUCCGUUGAAUGGAGUUUAUCAUG [A52G U53A],-0.907
12,GGAUCUUCUCGAUCUAACAAAAAAGACAAAUCUGCCACAAAGCUUGAGAGCUUCUUCGGAUGCAGAGGCGGCAGCCUUCGGUGGCGCGAUAGCGCCAACGUUCUCAACUAUGACACGCAAAACGCGUGCUCCGUUGAAUGGAGUUUAUCCUG [A52U A150C],-4.03
13,GGAUCUUCUCGAUCUAACAAAAAAGACAAAUCUGCCACAAAGCUUGAGAGCGGCUUCGGAUGCAGAGGCGGCAGCCGUCGGUGGCGCGAUAGCGCCAACGUUCUCAACUAUGACACGCAAAACGCGUGCUGCGUUGAAUGGAGUUUAUCAUG [A52G U53G U77G C131G],≤ -4.2
14,GGAUCUUCUCGAUCUAACAAAAAAGACAAAUCUGCCACAAAGCUUGAGAGCGUCAUCGGAUGCAGAGGCGGCAGCCUUCGGUGGCGCGAGAGCGCUAACGUUAUCAACUAUGACACGCAAAACGCGUGCUGCGUUGAAUGGAGUUUAUCAUG [A52G U55A U90G C96U C103A C131G],≤ -4.2
15,GGAUCUUCUCGAUCUAACAAAAAAGACAAAUCUGCCACAAAGCUUGAGAGCUUCUUCGGAUGCAGAGGCGGCAGCUUUCGGUGGCGCGAUAGCGCCAACGUUCUCAACUAUGACACGCAAAACGCGUGCUCCGUUGAAUGGAGUUUAUCUUG [A52U C76U A150U],-1.19
16,GGAUCUUCUCGAUCUAACAAAAAAGACAAAUCUGCCACAAAGCUUGAGAGCGUCCUCGGAUGCAGAGGCGGCAGCCUUCGGUGGCGCGAUAGCGCCAACGUUCUGAACAAUGACACGCAAAACGCGUGCUCCGUUGAAUGGAGUUUAUCAUG [A52G U55C C105G U109A],-1.97
17,GGAUCUUCUCGAUCUAACAAAAAAGACAAAUCUGCCACAAAGCUUGAGAGCGUCUUCGGAUGCAGAGGCGGCAGCCUUCGGUCGCGCGAUAGCGCCAACGUUCUCAACUAUGACACGCAAAACGCGUGCUCCGUUGAAUGGAGUUUAUCAUG [A52G G83C],-2.18
18,GGAUCUUCUCGAUCUAACAAAAAAGACAAAUCUGCCACAAAGCUUGAGAGCGUCUUCGGAUGCAGAGGCGGCAGCCUUCGGUCGCGCGAUAGCGCCAACGUUCUCAACUAUGACACGCAAAACGCGUGAUCCGUUGAAUGGAGUUUAUCAUG [A52G G83C C129A],-2.88
19,GGAUCUUCUCGAUCUAACAAAAAAGACAAAUCUGCCACAAAGCUUGAGAGCGUCUUCGGAUGCAGAGGCGGCAGCCUUCUGUGGCGCGAUAGCGCCAACGUUCUCAACUAUGACACGCAAAACGCGUGCUCCGUUGAAUGGAGUUUAUCAUG [A52G G80U],-3.34

row,Variant,polymerase ribozyme fitness (log ratio)
1,GGAUCUUCUCGAUCUAACAAAAAAGACAAAUCUGCCACAAAGCUUGAGAGCGUCUUCGGAUGCAGAGGCGGCAACCUUCGGUGGCGCGAUAGCGCCAACGUUCUCAACUAUGACACGCAAAACGCGUGCUCCGUUGUAUGGAGUUUAUCAUG [A52G G74A A137U],≤ -4.2
2,GGAUCUUCUCGAUCUAACAAAAAAGACAAAUCUGCCACAAAGCUUGAGAGCUUCUUCGGAUGCAGAGGCGGCAGCCUUCGGUGGCGCGCUAGCGCCAACGUUCUCAACUAUGACACGCAAAACGCGUGCUCCGUUGAAUGGAGUUUAUCAUG [A52U A89C],-3.05
3,GGAUCUUCUCGAUCUAACAAAAAAGACAAAUCUGCCACAAAGCUUGAGAGCGUCUUCGGAUGCAGAGGCGGCAGCCUUCGGUGGCGCGAUAGCGCCAACGUUCUCAACUAUGACACGCAAAACGCGUGCUCCGUUGAAUGGACUUUAUCAUG [A52G G143C],-3.77
4,GGAUCUUCUCGAUCUAACAAAAAAGACAAAUCUGCCACAAAGCUUGAGAGCGUCUUCGGAUGCAGAGGCGGCAGCCGUCGGUGGCGCCAUAGCGCCAACGUUCUCAACUAUGACACGCAAAACGCGUGCUCCGUUGAAUGGAGUUUAUCAUG [A52G U77G G88C],≤ -4.2
5,GGAUCUUCUCGAUCUAACAAAAAAGACAAAUCUGCCACAAAGCUUGAGAGCGUCUUCGGAUGCAGAGGCGGCAGCCUUCGGUAGCGCGAUAGCGCCAACGUUCUCAACUAUGACACGUAAAACGCGUGCUCCGUUGAAUGGAGUUUAUCGUG [A52G G83A C118U A150G],-2.35
6,GGAUCUUCUCGAUCUAACAAAAAAGACAAAUCUGCCACAAAGCUUGAGAGCGUCUUCGGAUGCAGAGGCGGCAACCUUCGGUGGCGUGAUAGCGCCAACGUUCUCAACUAUGACACGCAAAACGCGUGCUUCGUUGAAUGGGGUUUAUCAUG [A52G G74A C87U C131U A142G],-3.99
7,GGAUCUUCUCGAUCUAACAAAAAAGACAAAUCUGCCACAAAGCUUGAGAGCGUCUUCGGAUGCAGAGGCGGCAGCCUUCGGUGGCGCGAUAACGCCAACGUUCUCAACUAUGUCACGCAAAACGCGUGCUCCGUUGAAUGGAGUUUAUCAUG [A52G G92A A113U],-3.81
8,GGAUCUUCUCGAUCUAACAAAAAAGACAAAUCUGCCACAAAGCUUGAGAGCUUCUUAGGAUGUAGAGGCGGCAGCCUUCGGUGGCGCGAUAGCUCCAACGUUCUCAACUAUGACACGCAAAACGCGUGCUCCGUUGAAUGGAGUUUAUCGUG [A52U C57A C63U G94U A150G],≤ -4.2
9,GGAUCUUCUCGAUCUAACAAAAAAGACAAAUCUGCCACAAAGCUUGAGAGCUUCUUCGGAUGCAGAGGCGGCAGCCUUCGGUGGGGCGAUAGCGCCAACGUUCUCAACUAUGACACGCAAAAAGCGUGCUCCGUUGAAUAGAGUUUAUCAUG [A52U C85G C123A G140A],≤ -4.2
10,GGAUCUUCUCGAUCUAACAAAAAAGACAAAUCUGCCACAAAGCUUGAGAGCUUCUUCGGAUGCAGAGGCGGCAGCCUUCGGUGGCGCGAUAGCGCCAACGUUCUCACCUAUGACACGCAAAACGCGUGCUCCGUUGAAUGGAGUUUAUCAUG [A52U A107C],≤ -4.2
11,GGAUCUUCUCGAUCUAACAAAAAAGACAAAUCUGCCACAAAGCUUGAGAGCGUCUUCGGAUGCAGAGGCGGCAGCCUUCGGUGUCGCGAUAGCGCCAACGUUCUCAACUAUGACACGGAAAACGCGUACUCCGUUGAAUGGAGGAUAUCAUG [A52G G84U C118G G128A U144G U145A],≤ -4.2
12,GGAUCUUCUCGAUCUAACAAAAAAGACAAAUCUGCCACAAAGCUUGAGAGCGACUUCGGAUGCAGAGGCGGCAGCCUUCGGUUGCGCGAUAGCGCCAACGUUCUCAACUAUGACACGCAAAACGCGUGCUCCGUUGAAUGGAGUUUAUCAUG [A52G U53A G83U],-2.28
13,GGAUCUUCUCGAUCUAACAAAAAAGACAAAUCUGCCACAAAGCUUGAGAGCGUCUUCGGAUGCAGAGGCGGCAGCCUUCGGGGGCGCGAUAGCGCCAACGUUCUCAACUAUGACACGCAAAACGCGUGCUCCGUUGAAUGGAGUUUAUCAUG [A52G U82G],0.0484
14,GGAUCUUCUCGAUCUAACAAAAAAGACAAAUCUGCCACAAAGCUUGAGAGCUUUAUGGGAUGCAGAGGCGGCGGCCUUCGGUCGCGCGAUAGCGCCAACGUUCUCAACUAUGACACGCAAAACGCGUGCUCCGUUGAAUGGAGUUUAUCAUG [A52U C54U U55A C57G A73G G83C],≤ -4.2
15,GGAUCUUCUCGAUCUAACAAAAAAGACAAAUCUGCCACAAAGCUUGAGAGCUUCUUCGGAUGUAGAGGCGGCAGCCUUCGGUGGUGCGAUAGCGCCAACGUUCUCAACUAUGACAGGCAAAACGCGUGCUCCGUUGAAUGGAGUUUAUCAUG [A52U C63U C85U C116G],-0.741
16,GGAUCUUCUCGAUCUAACAAAAAAGACAAAUCUGCCACAAAGCUUGAGAGCGUCUUCGGAUGCAGAGGCGGCAGCCUUCGGAGGCGCGAUAGCGCGAACGUUCUCAACUAUGACACGCAAAACGCGUGCUCCGUUGAAUGGAGUUUAUCAUG [A52G U82A C96G],0.187
17,GGAUCUUCUCGAUCUAACAAAAAAGACAAAUCUGCCACAAAGCUUGAGAGCGUCUUCGGAUGCAAAGUCGGCAGCCUUCGGUGGCGCGAUAUCGCCAACGUUUUCAACUAUGACACGCUAAACGCGUGCUCCGUUGAACGGAGUUUAUCAUG [A52G G65A G68U G92U C103U A119U U139C],≤ -4.2
18,GGAUCUUCUCGAUCUAACAAAAAAGACAAAUCUGCCACAAAGCUUGAGAGCGUCUUCGGAUGCAGAGGCGGCAGCCUUCGGUGUCGCGAUAGCGCUAACGUUCUCAACUAUGACACGCAAAACGCGUGCUCCGUUGAACGGAGCUUAUCAUG [A52G G84U C96U U139C U144C],≤ -4.2
19,GGAUCUUCUCGAUCUAACAAAAAAGACAAAUCUGCCACAAAGCUUGAGAGCGUCUACGGAUGCCGAGGCGGCAGCCUUCGGUGGCGCGAUAUCGCCAACGUUCUCAACUAUGACACGCAAAACGCGUGCUCCGUUGAAUGGAGUUUAUCAUG [A52G U56A A64C G92U],≤ -4.2
